The values below come from patent US20250333523A1 (Alector, published 2025).

“And” between values parts separate entries of the source, which are not always exact repeats. Identical values can stand only once. Like-named read-outs stand apart in the source and are kept apart here.

For assay [1], the target named is T1, His/Avi-CynoIL18BP (recombinant cynomolgus IL-18BP with His and Avi tags) (cynomolgus monkey).
T1 construct: also called cynomolgus IL-18BP-Avi-His
T1 chain: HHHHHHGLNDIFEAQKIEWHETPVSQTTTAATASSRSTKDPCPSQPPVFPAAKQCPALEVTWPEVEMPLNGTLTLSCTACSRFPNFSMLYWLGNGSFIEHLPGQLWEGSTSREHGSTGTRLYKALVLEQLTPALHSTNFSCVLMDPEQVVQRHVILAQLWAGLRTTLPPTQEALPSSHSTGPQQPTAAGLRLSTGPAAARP
In words: ELISA, coated IL-18BP.

Assay [2] addresses T2, Avi/His-HuIL18BPa (recombinant human IL-18BP isoform A with Avi and poly-His tags) (human, biotinylated with BirA on the Avi tag in some assays).
T2 construct: also called human IL-18BP-Avi-His
T2 chain: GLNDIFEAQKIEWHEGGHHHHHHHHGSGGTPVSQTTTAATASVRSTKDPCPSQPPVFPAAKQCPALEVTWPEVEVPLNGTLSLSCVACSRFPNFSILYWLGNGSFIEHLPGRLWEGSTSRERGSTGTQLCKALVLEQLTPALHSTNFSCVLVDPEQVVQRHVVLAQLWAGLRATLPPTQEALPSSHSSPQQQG
Description: ELISA, coated IL-18BP.

Assay [3] deals with T3, Avi/HisMsIL18BPd (recombinant mouse IL-18BP with Avi and poly-His tags) (mouse, biotinylated with BirA on the Avi tag in some assays).
T3 construct: also called murine IL-18BP; IL-18BP-Avi-His (mouse)
T3 chain: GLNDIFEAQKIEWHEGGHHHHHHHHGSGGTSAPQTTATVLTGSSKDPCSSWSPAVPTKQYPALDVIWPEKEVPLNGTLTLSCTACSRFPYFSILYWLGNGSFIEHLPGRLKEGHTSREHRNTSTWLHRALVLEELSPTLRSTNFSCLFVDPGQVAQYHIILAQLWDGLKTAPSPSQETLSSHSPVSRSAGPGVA
In words: ELISA, coated IL-18BP. A general note: In an ELISA, binding on a coated surface is turned into a signal by an enzyme label.

Assay [4] concerns the target T1, His/Avi-CynoIL18BP (recombinant …). In words: cell-based or functional assay.
Assay [5] has the same target. In words: blocking ELISA, competitor rhesus IL-18.
The target is the same in assay [6]. In words: SPR Carterra LSA, IgG immobilized.
The target of assay [7] is T2, Avi/His-HuIL18BPa (recombinant human …). In words: SPR Carterra LSA, IgG immobilized.
Assay [8] concerns the target T4, mouse IL-18BPd-human IgG Fc (R&D Systems, Cat. #122-BP-100) (mouse; human, UniProt Q9Z0M9 29-193).
T4 construct: Bought; also called mouse IL-18BPd-Fc Chimera
T4 sequence (looked up): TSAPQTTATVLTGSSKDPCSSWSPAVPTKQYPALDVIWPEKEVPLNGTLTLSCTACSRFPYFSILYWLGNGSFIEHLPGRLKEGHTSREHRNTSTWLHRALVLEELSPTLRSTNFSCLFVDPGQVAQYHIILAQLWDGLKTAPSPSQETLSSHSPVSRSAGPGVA
In words: blocking ELISA, competitor mouse IL-18.

Assay [9] has as its target T2, Avi/His-HuIL18BPa (recombinant human …). Description: cell-based or functional assay.
Assay [10] concerns the target T3, Avi/HisMsIL18BPd (recombinant mouse …). In words: cell-based or functional assay.
For assay [11], the target named is T2, Avi/His-HuIL18BPa (recombinant human …). Description: blocking ELISA, competitor human IL-18.
The target is the same in assay [12]. In words: cell-based or functional assay.
In assay [13] the target is T3, Avi/HisMsIL18BPd (recombinant mouse …). Description: cell-based or functional assay.
For assay [14], the target named is T1, His/Avi-CynoIL18BP (recombinant …). Description: SPR Biacore T200, IgG captured on Protein A/G. (Surface plasmon resonance follows binding to a sensor surface in real time, without labels.)
In assay [15] the target is T2, Avi/His-HuIL18BPa (recombinant human …). Description: SPR Biacore T200, IgG captured on Protein A/G.

B1: anti-IL18BP antibody BP-12 (antibody, human IgG1, V domains shown)
VH: EVQLQQSGPELVKPGASVKMSCKTSGYTFTEYTMHWVKQSHGKSLEWIGGVNPNNGGTTYNQKFRDKATLTVDKSSSTTYMEVRTLTSDDSAVYYCAPLWRVFDYWGQGTTLTVSS
VL: DIVMTQSHKFMSSSVGDRVSITCKASQDVGTAVAWYQQKPGQSPKLLIYWASTRHTGVPDRFTGSGSGTDFTLTISNVQSEDLADYFCHQFSRYPLTFGAGTKLELK
For orientation: Kd means the constant that tells how readily two partners part at equilibrium. With B1, the “ELISA binding ratio (fold-change over background)” value in [1] was 44 fold over background; in assay [2] it was 43.2 fold over background; in assay [3], 34.2 fold over background. Moreover, the “% of Max Gamma, human NK cells” value in [4] was 76.5%. For the same molecule, the “EC50 of IFNγ release, human NK cells” value in assay [4] was found to be 70 nM. For the same molecule, the results for the “blocking ELISA signal normalized to isotype control (=1)” value (“blocking ELISA signal normalized” below) in assay [5], in assay [8] and in assay [11] were 0.36 ratio to isotype control, 0.351 ratio to isotype control and 0.117 ratio to isotype control, respectively. In addition, the equilibrium dissociation constant (Kd) in assay [6] stood at 0.5 nM; in assay [7] it was 7.6 nM. The “EC50 of IFNγ release, human PBMC” value in [9] was 6.09 nM. For the same molecule, the “Fold change of IFNγ at 10 µg/ml vs baseline, human PBMC” value (from here on “Fold change of IFNγ … human PBMC”) in assay [9] was 10.3 fold. The “EC50 of IFNγ release, mouse splenocytes” value in assay [10] is 15.7 nM. For the same molecule, in assay [10], the “Fold change of IFNγ at 10 µg/ml vs baseline, mouse splenocytes” value (shortened to “Fold change of IFNγ … mouse splenocytes”) is 1.88 fold.

B2: anti-IL18BP antibody BP-04 (antibody, V domains shown)
VH: HVHLHQSGAELVRPGVSVKISCRGSGYTFTDYDVHWVKQSHAKSLEWIGVISTYYGDVGYNQEFKGKATMTLDKSSSTSYLELARLTSEDSAIYYCARSGTYYYGTRESHALDYWGQGTSVTVSS
VL: DIQMTQSPASLSVSVGETVTITCRTSDNVYSNLAWYQQKQGKSPQLLVYGAINLADGVPSRFSGSGSDTQYSLKINNLQSEDFGSYYCQHFWGNPYTFGGGTKLEIK
notes: also called BP-04 (hybridoma); BP-04 (parental)
By koff is commonly meant the first-order rate constant of dissociation. Broadly, the kon is a measure of how fast the partners come together. Regarding B2, the “ELISA binding ratio (fold-change over background)” value in [1] was 45.2 fold over background; in assay [2], 39.7 fold over background; in assay [3], 39.1 fold over background. Further, the “% of Max Gamma, human NK cells” value in assay [4] was found to be 25.9%. Besides, the “EC50 of IFNγ release, human NK cells” value in assay [4] was determined as 2.41 nM. Also, the figures for the “blocking ELISA signal normalized” value in assay [5], in assay [8] and in assay [11] were 0.943 ratio to isotype control, 0.122 ratio to isotype control and 0.165 ratio to isotype control, respectively. Moreover, the Kd in [6] is 3 nM; in assay [7], 0.8 nM; in assay [14] it was 7.3 nM and 8.5 nM; in assay [15], 1 nM and 1.1 nM. Moreover, the “EC50 of IFNγ release, human PBMCs” value in assay [12] is 15.7 nM. In addition, the “EC50 of IFNγ release, mouse splenocytes” value is 14.9 nM in assay [13] and 4.29 nM in [10]. For the same molecule, the off-rate constant (koff) in [14] is 0.0032 s⁻¹ and 0.0033 s⁻¹; in [15], 0.00059 s⁻¹ and 0.00062 s⁻¹. The kon in [14] was 440000 M⁻¹ s⁻¹ and 390000 M⁻¹ s⁻¹; in assay [15] it was 580000 M⁻¹ s⁻¹. Also, in [9], the “EC50 of IFNγ release, human PBMC” value was found to be 0.67 nM. In assay [9], the “Fold change of IFNγ … human PBMC” value stood at 19 fold. For the same molecule, the “Fold change of IFNγ … mouse splenocytes” value in [10] is 2.74 fold.

B3: anti-IL18BP antibody BP-10 (antibody, human IgG1, V domains shown)
VH: QVQLQQPGAERVEPGASVRLSCKTSGYTFTNYWMHWVKQRPGQGLEWIGMIHPESGSTNNNEKFKSKATLTVDKSSSTAYMQLSSLTSEDSAVYYCARWDRGYFDYWGQGTTLTVSS
VL: DIVMTQSHKFMSTSVGDRVSITCKASQDVRSTVGWYQQRPGQSPKLLIYWTSTRHTGVPDRFTGSGSGTDYTLTISSVQAEDLALYYCQQHYSTPYTFGGGTTLEIK
B3: the “ELISA binding ratio (fold-change over background)” value is 48.1 fold over background in assay [1], 42.1 fold over background in [2] and 40.8 fold over background in assay [3]. Also, the “% of Max Gamma, human NK cells” value in assay [4] was found to be 55.2%. Also, the “EC50 of IFNγ release, human NK cells” value in assay [4] is 6 nM. For the same molecule, the “blocking ELISA signal normalized” value in assay [5] is 0.28 ratio to isotype control; in assay [8], 0.326 ratio to isotype control; in [11], 0.067 ratio to isotype control. For the same molecule, the Kd in assay [6] worked out at 0.02 nM; in assay [7], 1 nM. In addition, the “EC50 of IFNγ release, human PBMC” value in assay [9] turned out to be 2.05 nM. For the same molecule, the “Fold change of IFNγ … human PBMC” value in assay [9] was 15.5 fold. The “EC50 of IFNγ release, mouse splenocytes” value in [10] is 538 nM. The “Fold change of IFNγ … mouse splenocytes” value in assay [10] stood at 2.85 fold.

B4: anti-IL18BP antibody BP-03 (antibody, human IgG1, V domains shown)
VH: EVQLQQSGPELVKPGASVKIPCKASGYTFTDYNMDWVKQSHGKSLEWIGNINTDNGGTVYNQKFKGKATLTVDQSSSTAYMELRSLTSEDTAVYYCARSDTTVVASRYYAMDYWGQGTSVTVSS
VL: DIVLTQSPASLAMSLGKRATISCRASESVSIIGTNLIHWYQQKPGQPPKLLIYHASNLETGVPARFSGSGSRTDFTLTIDPVEEDDVAIYYCLQSRKIPPTFGGGTKLEIK
In the case of B4, the “ELISA binding ratio (fold-change over background)” value in assay [1] turned out to be 36.5 fold over background; in assay [2], 41.9 fold over background; in assay [3] it was 41.6 fold over background. Further, the results for the “blocking ELISA signal normalized” value in assay [5], in assay [8] and in assay [11] were 0.996 ratio to isotype control, 0.157 ratio to isotype control and 0.151 ratio to isotype control, respectively. For the same molecule, the figures for the Kd in assay [6] and in [7] were 2.34 nM and 4.1 nM, respectively. Further, the “EC50 of IFNγ release, human PBMC” value in assay [9] was 1.14 nM. In addition, in [9], the “Fold change of IFNγ … human PBMC” value was found to be 11.3 fold. The “EC50 of IFNγ release, mouse splenocytes” value in assay [10] is 4.49 nM. The “Fold change of IFNγ … mouse splenocytes” value in assay [10] turned out to be 5.93 fold.

B5: anti-IL18BP antibody BP-13 (antibody, human IgG1, V domains shown)
VH: QVQLQQSGAELVRPGASVTLSCKASGYTFTDYEMHWVKQTPVHGLEWIGPIDPETGDTAYNQKFKGQATLTADKSSSTAYMELSSLTSEDSAVYYCTRGSRGVFDYWGQGTALTVSS
VL: DIVMTQSHKFMSTSVGDRVSITCKASQDVGTAVAWYQQKPGQSPKLLIYWASARHTGVPDRFTGSGSGTDFTLTISNVQSEDLADYFCQHYFNFPRTFGGGTKLEIT
As for B5, the “ELISA binding ratio (fold-change over background)” value amounted to 49 fold over background in assay [1], 44.7 fold over background in assay [2] and 16.9 fold over background in assay [3]. Also, the “% of Max Gamma, human NK cells” value in assay [4] came out at 54.1%. For the same molecule, in assay [4], the “EC50 of IFNγ release, human NK cells” value was determined as 39.7 nM. In addition, the “blocking ELISA signal normalized” value in [5] is 0.331 ratio to isotype control; in [8], 0.53 ratio to isotype control; in [11] it was 0.128 ratio to isotype control. Besides, the Kd in assay [6] is 0.3 nM; in [7], 7.2 nM. Further, the “EC50 of IFNγ release, human PBMC” value in assay [9] was 3.89 nM. Further, in [9], the “Fold change of IFNγ … human PBMC” value amounted to 11.8 fold. For the same molecule, the “EC50 of IFNγ release, mouse splenocytes” value in [10] was determined as 640 nM. Further, the “Fold change of IFNγ … mouse splenocytes” value in assay [10] stood at 1.74 fold.
